Laboratory results: IntAct's records for PubMed 29892012

B1: U3 small nucleolar RNA-associated protein 25 homolog (Homo sapiens), Q68CQ4 (parent)
chain: MGKRGSRSQSQLLNTLTKKQKKHLRDFGEEHPFYDRVSRKEAKPQICQLSESSDSSDSESDSESEPQQVSGYHRLLATLKNVSEEEEEDEEEEEEEDSIVDDAEMNDEDGGSDVSVEEEMAAESTESPENVALSADPEGKEDGEEPPGTSQTSPEEFTDAKHESLFSLETNFLEEESGDNSSLKASQDPFLQHVNKELKEKAIQAVATNPKTTHELKWPILGQLFFSSKFQKLETFKPPKDIDLKSLHLQKPLESTWTKTNSQFLSGPQKSSSPFTPLQKELFLIMNSYRDLFYPERTALKNGEEIRHVYCLHVINHILKANAQVLGNNSRRRSQKFGVGDDDDFRDQGLTRPKVLIVVPFREAALRVVQLFISLLEGDSKKKIIVSNKKRFQGEYGSDPEERPPNLKRPEDYEAVFVGNIDDHFRIGVAILQRSIRLYAPFYSSDILIASPLGLRTIIGGEGEKKRDFDFLSSIELLIIDQADIYLMQNWEHVLHLMNHMNLLPLDSHGVDFSRVRMWSLNNWSKYYRQTLLFGALQDAQINSVFNKYCVNMQGQVAVRNVPMTGSISHVLVQLPHVFQRMEAENLASVIDARFNFFVNKILPQYRDAVMSHTLIYIPSYFDFVRLRNYFKKEELNFTHICEYTQKSGVSRARHFFLQGEKQFLLFTERFHFYKRYTIKGIRNLIFYELPTYPHFYSEICNMLRATNRGEEATWTCTVLYSKYDAQRLAAVVGVERAAQMLQSNKNVHLFITGEK
partner: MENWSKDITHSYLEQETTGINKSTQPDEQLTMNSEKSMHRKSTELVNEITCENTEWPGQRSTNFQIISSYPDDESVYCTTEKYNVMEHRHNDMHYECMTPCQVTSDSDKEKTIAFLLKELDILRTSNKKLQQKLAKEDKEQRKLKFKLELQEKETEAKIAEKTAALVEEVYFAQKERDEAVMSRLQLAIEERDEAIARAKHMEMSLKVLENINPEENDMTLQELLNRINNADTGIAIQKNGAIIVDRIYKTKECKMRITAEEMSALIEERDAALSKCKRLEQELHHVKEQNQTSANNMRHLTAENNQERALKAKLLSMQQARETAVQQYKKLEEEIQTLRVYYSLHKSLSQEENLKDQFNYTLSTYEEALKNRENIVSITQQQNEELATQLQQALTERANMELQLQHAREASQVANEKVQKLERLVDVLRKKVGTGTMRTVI
B2: E3 ubiquitin-protein ligase LNX (Homo sapiens), Q8TBB1 (parent)
chain: MNQPESANDPEPLCAVCGQAHSLEENHFYSYPEEVDDDLICHICLQALLDPLDTPCGHTYCTLCLTNFLVEKDFCPMDRKPLVLQHCKKSSILVNKLLNKLLVTCPFREHCTQVLQRCDLEHHFQTSCKGASHYGLTKDRKRRSQDGCPDGCASLTATAPSPEVSAAATISLMTDEPGLDNPAYVSSAEDGQPAISPVDSGRSNRTRARPFERSTIRSRSFKKINRALSVLRRTKSGSAVANHADQGRENSENTTAPEVFPRLYHLIPDGEITSIKINRVDPSESLSIRLVGGSETPLVHIIIQHIYRDGVIARDGRLLPGDIILKVNGMDISNVPHNYAVRLLRQPCQVLWLTVMREQKFRSRNNGQAPDAYRPRDDSFHVILNKSSPEEQLGIKLVRKVDEPGVFIFNVLDGGVAYRHGQLEENDRVLAINGHDLRYGSPESAAHLIQASERRVHLVVSRQVRQRSPDIFQEAGWNSNGSWSPGPGERSNTPKPLHPTITCHEKVVNIQKDPGESLGMTVAGGASHREWDLPIYVISVEPGGVISRDGRIKTGDILLNVDGVELTEVSRSEAVALLKRTSSSIVLKALEVKEYEPQEDCSSPAALDSNHNMAPPSDWSPSWVMWLELPRCLYNCKDIVLRRNTAGSLGFCIVGGYEEYNGNKPFFIKSIVEGTPAYNDGRIRCGDILLAVNGRSTSGMIHACLARLLKELKGRITLTIVSWPGTFL
partner: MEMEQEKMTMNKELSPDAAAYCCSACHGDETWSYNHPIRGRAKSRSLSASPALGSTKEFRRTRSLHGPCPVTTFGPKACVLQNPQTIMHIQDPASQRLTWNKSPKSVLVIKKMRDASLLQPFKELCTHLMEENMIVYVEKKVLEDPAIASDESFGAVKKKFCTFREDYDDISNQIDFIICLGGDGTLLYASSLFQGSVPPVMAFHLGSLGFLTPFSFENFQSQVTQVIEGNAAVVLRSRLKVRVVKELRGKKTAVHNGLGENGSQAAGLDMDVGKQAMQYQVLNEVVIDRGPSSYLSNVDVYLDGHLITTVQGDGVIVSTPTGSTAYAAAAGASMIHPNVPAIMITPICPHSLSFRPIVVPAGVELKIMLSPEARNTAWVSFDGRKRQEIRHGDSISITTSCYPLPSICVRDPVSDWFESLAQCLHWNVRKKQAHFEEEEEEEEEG
B3: Abl interactor 2 (Homo sapiens), Q9NYB9 (parent)
chain: MAELQMLLEEEIPGGRRALFDSYTNLERVADYCENNYIQSADKQRALEETKAYTTQSLASVAYLINTLANNVLQMLDIQASQLRRMESSINHISQTVDIHKEKVARREIGILTTNKNTSRTHKIIAPANLERPVRYIRKPIDYTILDDIGHGVKWLLRFKVSTQNMKMGGLPRTTPPTQKPPSPPMSGKGTLGRHSPYRTLEPVRPPVVPNDYVPSPTRNMAPSQQSPVRTASVNQRNRTYSSSGSSGGSHPSSRSSSRENSGSGSVGVPIAVPTPSPPSVFPAPAGSAGTPPLPATSASAPAPLVPATVPSSTAPNAAAGGAPNLADGFTSPTPPVVSSTPPTGHPVQFYSMNRPASRHTPPTIGGSLPYRRPPSITSQTSLQNQMNGGPFYSQNPVSDTPPPPPPVEEPVFDESPPPPPPPEDYEEEEAAVVEYSDPYAEEDPPWAPRSYLEKVVAIYDYTKDKEDELSFQEGAIIYVIKKNDDGWYEGVMNGVTGLFPGNYVESIMHYSE
partner: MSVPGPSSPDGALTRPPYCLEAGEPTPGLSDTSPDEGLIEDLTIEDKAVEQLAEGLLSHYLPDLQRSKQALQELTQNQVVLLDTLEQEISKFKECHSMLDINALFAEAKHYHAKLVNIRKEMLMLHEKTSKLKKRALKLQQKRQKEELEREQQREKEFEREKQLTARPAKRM
B4: Histone-lysine N-methyltransferase SMYD1 (Homo sapiens), Q8NB12 (parent)
chain: MTIGRMENVEVFTAEGKGRGLKATKEFWAADIIFAERAYSAVVFDSLVNFVCHTCFKRQEKLHRCGQCKFAHYCDRTCQKDAWLNHKNECSAIKRYGKVPNENIRLAARIMWRVEREGTGLTEGCLVSVDDLQNHVEHFGEEEQKDLRVDVDTFLQYWPPQSQQFSMQYISHIFGVINCNGFTLSDQRGLQAVGVGIFPNLGLVNHDCWPNCTVIFNNGNHEAVKSMFHTQMRIELRALGKISEGEELTVSYIDFLNVSEERKRQLKKQYYFDCTCEHCQKKLKDDLFLGVKDNPKPSQEVVKEMIQFSKDTLEKIDKARSEGLYHEVVKLCRECLEKQEPVFADTNIYMLRMLSIVSEVLSYLQAFEEASFYARRMVDGYMKLYHPNNAQLGMAVMRAGLTNWHAGNIEVGHGMICKAYAILLVTHGPSHPITKDLEAMRVQTEMELRMFRQNEFMYYKMREAALNNQPMQVMAEPSNEPSPALFHKKQ
partner: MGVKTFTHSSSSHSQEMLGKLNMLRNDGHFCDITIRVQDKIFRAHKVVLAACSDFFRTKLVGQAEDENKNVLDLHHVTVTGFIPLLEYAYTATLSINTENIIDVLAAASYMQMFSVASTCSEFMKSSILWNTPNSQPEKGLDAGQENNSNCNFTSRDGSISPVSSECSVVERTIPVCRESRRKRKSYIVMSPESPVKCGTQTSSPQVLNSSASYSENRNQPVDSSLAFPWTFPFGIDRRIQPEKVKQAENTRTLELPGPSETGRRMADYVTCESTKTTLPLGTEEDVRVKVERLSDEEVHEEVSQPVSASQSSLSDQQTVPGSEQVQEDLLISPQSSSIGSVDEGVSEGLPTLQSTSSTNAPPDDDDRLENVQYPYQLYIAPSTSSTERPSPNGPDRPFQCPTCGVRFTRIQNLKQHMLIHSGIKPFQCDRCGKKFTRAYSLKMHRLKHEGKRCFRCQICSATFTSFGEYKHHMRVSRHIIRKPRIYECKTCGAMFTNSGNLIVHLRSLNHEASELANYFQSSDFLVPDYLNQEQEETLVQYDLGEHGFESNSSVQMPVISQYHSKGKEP

Variants of: B1
Settings: with mipo1_human MIPOL1, Q8TD10

Variant	effect of a mutation on the interaction
D399E	with no effect

Variants of: B2
Settings: with nadk_human NADK

Variant	effect of a mutation on the interaction
E295K	disrupting interaction strength

Variants of: B3
Settings: with bl1s6_human BLOC1S6, Q9UL45

Variant	effect of a mutation on the interaction
R373C	with no effect

Variants of: B3
Settings: with bl1s6_human BLOC1S6, Q9UL45
Remark: another data set of the same source

Variant	effect of a mutation on the interaction
E202K	with no effect

Variants of: B4
Settings: with zbt44_human ZBTB44, Q8NCP5

Variant	effect of a mutation on the interaction
Q443R	disrupting interaction strength
